B1: Cold shock protein CspB, P41016 (parent)
chain: MQRGKVKWFNNEKGYGFIEVEGGSDVFVHFTAIQGEGFKTLEEGQEVSFEIVQGNRGPQAANVVKL

Variants of: B1
Settings: Bacillus caldolyticus, pH 7, Thermal, CD, Sodium cacodylate-HCl 0.1 M, reversible: yes, structure 1C9O, whole UniProt chain shown; for ddG of mutation (higher = less stable) / unfolding free energy: 70 °C

| Variant | ddG of mutation (higher = less stable) (NaCl 2 M) | unfolding free energy (NaCl 2 M) | ddG of mutation (higher = less stable) | unfolding free energy | Tm | change of melting temperature, mutant - wild type (higher = more stable) | unfolding enthalpy (van 't Hoff) |
| --- | --- | --- | --- | --- | --- | --- | --- |
| Q2L | -0.29 kcal/mol | 2.49 kcal/mol | -0.55 kcal/mol | 1.63 kcal/mol | 80.9 °C | 4 °C | 57.8 kcal/mol |
| R3E | 1 kcal/mol | 1.2 kcal/mol | – | – | 59.1 °C | -17.8 °C | 45.6 kcal/mol |
| N11S | -0.22 kcal/mol | 2.41 kcal/mol | -0.33 kcal/mol | 1.41 kcal/mol | 79.2 °C | 2.3 °C | 58.8 kcal/mol |
| Y15F | -0.07 kcal/mol | 2.27 kcal/mol | 0.05 kcal/mol | 1.03 kcal/mol | 76.7 °C | -0.2 °C | 56.6 kcal/mol |
| G23Q | 0.31 kcal/mol | 1.89 kcal/mol | 0.29 kcal/mol | 0.79 kcal/mol | 74.7 °C | -2.2 °C | 59.5 kcal/mol |
| S24D | -0.19 kcal/mol | 2.39 kcal/mol | -0.22 kcal/mol | 1.29 kcal/mol | 77.8 °C | 0.9 °C | 61.7 kcal/mol |
| T31S | -0.19 kcal/mol | 2.39 kcal/mol | -0.17 kcal/mol | 1.24 kcal/mol | 77.8 °C | 0.9 °C | 59.8 kcal/mol |
| E46A | 0.12 kcal/mol | 2.08 kcal/mol | 0.22 kcal/mol | 0.86 kcal/mol | 75.4 °C | -1.5 °C | 57.6 kcal/mol |
| Q53E | 0 kcal/mol | 2.2 kcal/mol | 0.1 kcal/mol | 0.98 kcal/mol | 76.1 °C | -0.8 °C | 58.8 kcal/mol |
| V64T | 0.19 kcal/mol | 2.01 kcal/mol | – | – | 75.1 °C | -1.8 °C | 58.3 kcal/mol |
| L66A | 0.07 kcal/mol | 2.13 kcal/mol | – | – | – | – | – |
| L66E | 1.27 kcal/mol | 0.93 kcal/mol | – | – | – | – | – |
| R3E L66E | – | – | – | – | 44.6 °C | -32.3 °C | 36.8 kcal/mol |
